Results published in US20250011363A1, “OPTIMIZED SHORTENED PEPTIDE THAT BINDS TO ACETYLCHOLINE RECEPTOR, AND USE THEREOF” (SKINMED CO., LTD., priority 2021, published 2025).

Target: acetylcholine receptor
Assay: SPR, peptide at 10 uM

| Binding affinity | Binder |
| --- | --- |
| 23 RU | KNCIKK [6mer-2-1197] |
| 27 RU | RMSHRR [6mer-2-1198] |
| 39 RU | RESKKR [6mer-2-1196] |

Target: acetylcholine receptor
Assay: SPR, peptide at 10 uM on acetylcholine receptor

| Binding affinity (RU) | Binder |
| --- | --- |
| 21 RU | KMNAK [5mer-671] |
| 32 RU | KYPDK [5mer-683] |
| 18 RU | RFNIR [5mer-686] |
| 21 RU | KKTVK [5mer-679] |
| 22 RU | KDNDR [5mer-657] |
| 24 RU | RAPNK [5mer-963] |
| 12 RU | RYWAR [5mer-973] |
| 21 RU | RFTER [5mer-680] |
| 27 RU | KCAER [5mer-684] |
| 23 RU | KTEVK [5mer-954] |
| 32 RU | KIANR [5mer-961] |
| 14 RU | RISPR [5mer-673] |
| 31 RU | RATPR [5mer-663] |
| 16 RU | RDCHR [5mer-667] |
| 12 RU | KFMHK [5mer-982] |
| 32 RU | RPSAK [5mer-966] |
| 11 RU | KNAHK [5mer-984] |
| 23 RU | RKMAR [5mer-953] |
| 22 RU | KIHEK [5mer-659] |
| 18 RU | RFAHK [5mer-975] |
| 18 RU | RTMFR [5mer-676] |
| 16 RU | KTTWK [5mer-653] |
| 26 RU | KTWEK [5mer-665] |
| 31 RU | KKWGR [5mer-658] |
| 22 RU | KYTDR [5mer-964] |
| 33 RU | KNDKK [5mer-981] |

| Binding affinity (RU) | Binder |
| --- | --- |
| 23 RU | RCAAR [5mer-652] |
| 23 RU | KPCVK [5mer-670] |
| 23 RU | KYMGR [5mer-678] |
| 18 RU | KDTMR [5mer-681] |
| 14 RU | KNADK [5mer-955] |
| 28 RU | KIEEK [5mer-662] |
| 14 RU | RNPGK [5mer-960] |
| 27 RU | RPHAK [5mer-668] |
| 19 RU | KPTWK [5mer-956] |
| 26 RU | KKTHK [5mer-967] |
| 22 RU | KDADR [5mer-950] |
| 17 RU | RDPKR [5mer-985] |
| 26 RU | RHMMR [5mer-974] |
| 11 RU | RKWKR [5mer-958] |
| 15 RU | RCEMR [5mer-677] |
| 23 RU | RHHMK [5mer-979] |
| 33 RU | KYMNR [5mer-970] |
| 16 RU | RETNR [5mer-976] |
| 30 RU | RCNMK [5mer-661] |
| 21 RU | RNDIK [5mer-685] |
| 17 RU | KPTWR [5mer-664] |
| 24 RU | RNPER [5mer-669] |
| 23 RU | RTTGR [5mer-983] |
| 31 RU | KPNVK [5mer-682] |
| 23 RU | RIWKR [5mer-962] |
| 11 RU | RIPHR [5mer-968] |

| Binding affinity (RU) | Binder |
| --- | --- |
| 16 RU | KNMIR [5mer-977] |
| 26 RU | KMKMK [5mer-949] |
| 22 RU | KETHR [5mer-674] |
| 12 RU | KTMHK [5mer-952] |
| 11 RU | KFDVK [5mer-660] |
| 30 RU | RYDHK [5mer-978] |
| 29 RU | KPNMK [5mer-959] |
| 30 RU | KMEIR [5mer-965] |
| 30 RU | RDCER [5mer-957] |
| 15 RU | RKCIR [5mer-655] |
| 18 RU | RYMGR [5mer-951] |
| 14 RU | KYAKR [5mer-972] |
| 12 RU | KHAPK [5mer-672] |
| 13 RU | KATGR [5mer-656] |
| 11 RU | RFTVR [5mer-651] |
| 27 RU | KEWNR [5mer-654] |
| 18 RU | RHDWR [5mer-666] |
| 12 RU | RPMDK [5mer-986] |
| 12 RU | KMTGK [5mer-971] |
| 20 RU | RYSFK [5mer-649] |
| 31 RU | RKPGR [5mer-675] |
| 33 RU | RKPHR [5mer-980] |
| 22 RU | RPEDK [5mer-650] |
| 27 RU | RNTVR [5mer-969] |
